Results published in article PMC9622684, “Characterization of an Escherichia coli-derived triple-type chimeric vaccine against human papillomavirus types 39, 68 and 70” (NPJ Vaccines, 2022).

B1: HPV39 L1 (15–505 aa), wild-type L1-only virus-like particle (domain or fragment)
chain: PPSVAKVVNTDDYVTRTGIYYYAGSSRLLTVGHPYFKVGMNGGRKQDIPKVSAYQYRVFRVTLPDPNKFSIPDASLYNPETQRLVWACVGVEVGRGQPLGVGISGHPLYNRQDDTENSPFSSTTNKDSRDNVSVDYKQTQLCIIGCVPAIGEHWGKGKACKPNNVSTGDCPPLELVNTPIEDGDMIDTGYGAMDFGALQETKSEVPLDICQSICKYPDYLQMSADVYGDSMFFCLRREQLFARHFWNRGGMVGDAIPAQLYIKGTDIRANPGSSVYCPSPSGSMVTSDSQLFNKPYWLHKAQGHNNGICWHNQLFLTVVDTTRSTNFTLSTSIESSIPSTYDPSKFKEYTRHVEEYDLQFIFQLCTVTLTTDVMSYIHTMNSSILDNWNFAVAPPPSASLVDTYRYLQSAAITCQKDAPAPEKKDPYDGLKFWNVDLREKFSLELDQFPLGRKFLLQARVRRRPTIGPRKRPAASTSSSSATKHKRKRVSK
notes: Major capsid protein L1 of human papillomavirus type 39, residues 15-505 as printed; chosen from full-length and 5-, 10-, 15-aa N-terminal truncations; Non-fusion expression, no tag; Copies: 72 pentamers (T = 7 capsid) as printed, i.e. 360 chains; also called WT HPV39; HPV39 VLP; source: E. coli ER2566 (pTO-T7), purified (SP or XS sepharose; self-assembly on removal of DTT, Superdex 200); copies: …
B2: HPV70 L1 (10–506 aa), wild-type L1-only virus-like particle (domain or fragment, human papillomavirus type 70, UniProt P50793 10-504, looked up)
chain: TVYLPPPSVAKVVNTDDYVTRTGIYYYAGSSRLLTVGHPYFKVPVNGGRKQEIPKVSAYQYRVFRVSLPDPNKFGLPDPSLYNPDTQRLVWACIGVEIGRGQPLGVGVSGHPLYNRLDDTENSHFSSAVSTQDSRDNVSVDYKQTQLCIIGCVPAMGEHWAKGKACKSTQQGDCPPLELVNTAIEDGDMIDTGYGAMDFRTLQETKSEVPLDICQSVCKYPDYLQMSADVYGDSMFFCLRKEQLFARHFWNRGGMVGDTIPSELYIKGTDIRERPGTHVYSPSPSGSMVSSDSQLFNKPYWLHKAQGHNNGICWHNQLFITVVDTTRSTNFTLSACTETAIPAVYSPTKFKEYTRHVEEYDLQFIFQLCTITLTADVMAYIHTMNPAILDNWNIGVTPPPSASLVDTYRYLQSAAIACQKDAPTPEKKDPYDDLKFWNVDLKEKFSTELDQFPLGRKFLLQVGARRRPTIGPRKRPASAKSSSSASKHKRKRVSK
notes: Major capsid protein L1 of human papillomavirus type 70, residues 10-506 as printed; chosen from full-length and 5-, 10-, 15-aa N-terminal truncations; Non-fusion expression, no tag; Copies: 72 pentamers (T = 7 capsid) as printed, i.e. 360 chains; also called WT HPV70; HPV70 VLP; source: E. coli ER2566 (pTO-T7), purified (SP or XS sepharose; self-assembly on removal of DTT, Superdex 200); copies: …

Key:
[1] = molecular target: HPV68 L1 (0–505 aa), wild-type L1-only virus-like particle (human papillomavirus type 68); assay: cryo-EM structure; VLPs (~2.0 mg/mL) vitrified on Quantifoil grids; icosahedral 3D reconstruction (AUTO3DEM or cisTEM)
[2] = molecular target: the molecule itself; assay: as above

Molecule	stoichiometry N [1] [pentamers]	stoichiometry N [2] [pentamers]
HPV68 L1 (0–505 aa), wild-type L1-only virus-like particle (natural protein)	72	
B1		72
B2		72
